This test deals with T1, SENP3 purified protein (UniProt Q9H4L4 1-574).
T1 construct: SENP3; cloned into pET-28a(+) between BamHI and HindIII; also called wild-type SENP3; pET-28a (+)-SENP3; source: E. coli Rosetta (DE3), purified (Ni-NTA)
Briefly: co-IP; in vitro immunoprecipitation with Flag antibody using purified recombinant proteins. The settings on record: both partners purified.

T1 sequence (Q9H4L4 whole entry): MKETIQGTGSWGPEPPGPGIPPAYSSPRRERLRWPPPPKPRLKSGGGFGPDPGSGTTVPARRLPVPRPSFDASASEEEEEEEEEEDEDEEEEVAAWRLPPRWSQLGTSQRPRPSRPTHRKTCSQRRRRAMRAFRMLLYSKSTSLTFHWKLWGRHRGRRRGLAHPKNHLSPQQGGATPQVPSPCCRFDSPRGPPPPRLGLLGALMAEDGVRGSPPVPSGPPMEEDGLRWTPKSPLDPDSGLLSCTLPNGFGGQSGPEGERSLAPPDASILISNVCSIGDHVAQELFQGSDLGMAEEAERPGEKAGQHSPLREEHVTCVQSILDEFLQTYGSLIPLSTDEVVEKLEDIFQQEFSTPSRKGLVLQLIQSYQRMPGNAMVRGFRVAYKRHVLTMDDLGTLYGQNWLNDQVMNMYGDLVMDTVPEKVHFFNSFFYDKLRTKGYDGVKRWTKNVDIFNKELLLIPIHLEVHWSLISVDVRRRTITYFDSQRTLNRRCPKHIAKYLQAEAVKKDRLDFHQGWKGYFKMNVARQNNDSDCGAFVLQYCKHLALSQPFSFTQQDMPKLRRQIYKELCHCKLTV

B1: Flag-SERPINB3 purified protein (natural protein, UniProt P29508 1-390, looked up)
chain: MNSLSEANTKFMFDLFQQFRKSKENNIFYSPISITSALGMVLLGAKDNTAQQIKKVLHFDQVTENTTGKAATYHVDRSGNVHHQFQKLLTEFNKSTDAYELKIANKLFGEKTYLFLQEYLDAIKKFYQTSVESVDFANAPEESRKKINSWVESQTNEKIKNLIPEGNIGSNTTLVLVNAIYFKGQWEKKFNKEDTKEEKFWPNKNTYKSIQMMRQYTSFHFASLEDVQAKVLEIPYKGKDLSMIVLLPNEIDGLQKLEEKLTAEKLMEWTSLQNMRETRVDLHLPRFKVEESYDLKDTLRTMGMVDIFNGDADLSGMTGSRGLVLSGVLHKAFVEVTEEGAEAAAATAVVGFGSSPTSTNEEFHCNHPFLFFIRQNKTNSILFYGRFSSP
notes: SERPINB3; cloned into pET-28a(+) between BamHI and HindIII; the methods name only pET-28a (+)-SERPINB3; also called SCCA1; pET-28a (+)-SERPINB3; source: E. coli BL21(DE3), purified (Ni-NTA)
Regarding B1, the binding result was “binds”.

For the origin of these results see publication PMC12847774, “SERPINB3 enhances NPM1 sumoylation via inhibiting SENP3’s activity and promotes lung tumorigenesis” (Cell Death & Disease, 2025).
